According to publication PMC3985704:

Target: T1, unmodified Dictyostelium Skp1A (Dictyostelium discoideum), P52285
T1 chain: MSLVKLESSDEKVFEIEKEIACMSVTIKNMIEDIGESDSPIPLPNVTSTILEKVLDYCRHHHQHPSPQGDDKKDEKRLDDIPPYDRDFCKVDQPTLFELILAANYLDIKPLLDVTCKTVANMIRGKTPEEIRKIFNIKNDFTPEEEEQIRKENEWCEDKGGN
Test: SAXS
Conditions: remark: other sources report otherwise

B1: unmodified Dictyostelium Skp1A, P52285 1-162 (natural protein)
chain: T1 chain
For B1, the stoichiometry N was 2.
